Measured values from patent US20210221867A1, “Compounds Capable of Binding to Melanocortin 4 Receptor” (Novo Nordisk A/S, priority 2018, published 2021).
Blank lines part the entries; values can stand above or below the binder they belong to. Positions of bridges follow the written chain, without caps; N, C: chain ends. Non-standard residues stand in square brackets, D forms with d. Nle = CCCC[C@H](N)C(=O)O

What was measured:
[1] = molecular target: human MC1 receptor (human) (UniProt Q01726); assay: SPA competition binding, displacement of 125I-NDP-α-MSH, BHK membranes with human MC1R
Sequence of human MC1 receptor (human) (Q01726 whole entry): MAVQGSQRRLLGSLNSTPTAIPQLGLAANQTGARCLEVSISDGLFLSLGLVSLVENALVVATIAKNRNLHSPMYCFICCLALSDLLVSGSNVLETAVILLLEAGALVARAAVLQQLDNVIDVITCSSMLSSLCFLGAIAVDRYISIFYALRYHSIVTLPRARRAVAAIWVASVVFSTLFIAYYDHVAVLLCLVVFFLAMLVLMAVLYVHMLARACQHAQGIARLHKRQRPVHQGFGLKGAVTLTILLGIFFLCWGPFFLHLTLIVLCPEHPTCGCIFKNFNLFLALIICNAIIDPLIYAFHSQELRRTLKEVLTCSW

[2] = molecular target: human MC1 receptor (human) (UniProt Q01726); assay: cell-based or functional assay
[3] = molecular target: human MC4 receptor (human) (UniProt P32245); assay: cell-based or functional assay
Sequence of human MC4 receptor (human) (P32245 whole entry): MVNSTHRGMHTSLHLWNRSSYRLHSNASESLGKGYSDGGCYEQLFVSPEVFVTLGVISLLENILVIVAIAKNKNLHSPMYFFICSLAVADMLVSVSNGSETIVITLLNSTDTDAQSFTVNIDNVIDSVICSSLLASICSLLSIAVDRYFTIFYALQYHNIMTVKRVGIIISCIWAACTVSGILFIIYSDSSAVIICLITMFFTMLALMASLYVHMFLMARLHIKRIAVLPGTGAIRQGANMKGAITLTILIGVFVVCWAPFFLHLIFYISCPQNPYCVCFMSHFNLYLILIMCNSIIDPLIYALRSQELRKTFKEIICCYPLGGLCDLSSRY

[4] = molecular target: human MC4 receptor (human) (UniProt P32245); assay: SPA competition binding, displacement of 125I-NDP-α-MSH, BHK membranes with human MC4R

IC50 [1]: 69 nM | MC1R cAMP EC50 [2]: 179 nM | MC4R cAMP EC50 [3]: 0.19 nM | IC50 [4]: 0.39 nM
B1: Ac-D-Arg-c[Cys-Pro-His-D-Phe-His-Trp-Cys]-Pro-Pro-D-Arg-D-Arg-NH2 (peptide)
peptide: Ac-[dR]CPH[dF]HWCPP[dR][dR]-NH2
modifications: disulfide 2-8
SMILES: CC(=O)N[C@H](CCCNC(=N)N)C(=O)N[C@H]1CSSC[C@@H](C(=O)N2CCC[C@H]2C(=O)N2CCC[C@H]2C(=O)N[C@H](CCCNC(=N)N)C(=O)N[C@H](CCCNC(=N)N)C(N)=O)NC(=O)[C@H](Cc2c[nH]c3ccccc23)NC(=O)[C@H](Cc2c[nH]cn2)NC(=O)[C@@H](Cc2ccccc2)NC(=O)[C@H](Cc2c[nH]cn2)NC(=O)[C@@H]2CCCN2C1=O

IC50 [1]: 44.1 nM | MC1R cAMP EC50 [2]: 126 nM | MC4R cAMP EC50 [3]: 0.32 nM | IC50 [4]: 0.35 nM
B2: Ac-D-Arg-c[Cys-Pro-His-D-Phe-His-Trp-Cys]-Pro-Pro-D-Arg-Glu-Nle-D-Arg-D-Arg-NH2 (peptide)
peptide: Ac-[dR]CPH[dF]HWCPP[dR]E[Nle][dR][dR]-NH2
modifications: disulfide 2-8
SMILES: CCCC[C@H](NC(=O)[C@H](CCC(=O)O)NC(=O)[C@@H](CCCNC(=N)N)NC(=O)[C@@H]1CCCN1C(=O)[C@@H]1CCCN1C(=O)[C@@H]1CSSC[C@H](NC(=O)[C@@H](CCCNC(=N)N)NC(C)=O)C(=O)N2CCC[C@H]2C(=O)N[C@@H](Cc2c[nH]cn2)C(=O)N[C@H](Cc2ccccc2)C(=O)N[C@@H](Cc2c[nH]cn2)C(=O)N[C@@H](Cc2c[nH]c3ccccc23)C(=O)N1)C(=O)N[C@H](CCCNC(=N)N)C(=O)N[C@H](CCCNC(=N)N)C(N)=O

IC50 [1]: 138 nM | MC4R cAMP EC50 [3]: 0.16 nM | IC50 [4]: 0.27 nM
B3: Ac-c[Cys-Pro-His-D-Phe-His-Trp-Cys]-Pro-Pro-D-Arg-Glu-Nle-D-Arg-D-Arg-D-Arg-NH2 (peptide)
peptide: Ac-CPH[dF]HWCPP[dR]E[Nle][dR][dR][dR]-NH2
modifications: disulfide 1-7
SMILES: CCCC[C@H](NC(=O)[C@H](CCC(=O)O)NC(=O)[C@@H](CCCNC(=N)N)NC(=O)[C@@H]1CCCN1C(=O)[C@@H]1CCCN1C(=O)[C@@H]1CSSC[C@H](NC(C)=O)C(=O)N2CCC[C@H]2C(=O)N[C@@H](Cc2c[nH]cn2)C(=O)N[C@H](Cc2ccccc2)C(=O)N[C@@H](Cc2c[nH]cn2)C(=O)N[C@@H](Cc2c[nH]c3ccccc23)C(=O)N1)C(=O)N[C@H](CCCNC(=N)N)C(=O)N[C@H](CCCNC(=N)N)C(=O)N[C@H](CCCNC(=N)N)C(N)=O
